# From IntAct's records for PubMed 21785410
# B1: NAP1-binding protein (Saccharomyces cerevisiae), P52919 (parent)
# chain: MLKSVQGLWKDFFGIRDDGRKREYGSLDEVRKRSALRSRRKQMRPTGKSVLKRPRKVTDRKTEEKIRTNRRKTPKRRLTKIFQTIRDVFSNDNENMSKMQNVCGDMTRILKKRSQGRPSYMDTDTAKSRILRSDAFKRKISELKYNKQRISELRSGSSDGSSGKDRNQSLYLDREILLQRQIKKRDEKIKALESKLQSLQEALNYSNEKYRILEDLLDSSNIHPSYTKSRRTMSNLARENDEIKPLKIDLSPSPIRRTNSLFTSSPMKTYNRDGNIPEMQPLQENISPACPTPPYRSRETEKEDETLSPISVDFSSYLS
# Variants of: B1
# Conditions: with nic96_yeast NIC96, P34077
# Chain of nic96_yeast NIC96, P34077 (P34077 whole entry): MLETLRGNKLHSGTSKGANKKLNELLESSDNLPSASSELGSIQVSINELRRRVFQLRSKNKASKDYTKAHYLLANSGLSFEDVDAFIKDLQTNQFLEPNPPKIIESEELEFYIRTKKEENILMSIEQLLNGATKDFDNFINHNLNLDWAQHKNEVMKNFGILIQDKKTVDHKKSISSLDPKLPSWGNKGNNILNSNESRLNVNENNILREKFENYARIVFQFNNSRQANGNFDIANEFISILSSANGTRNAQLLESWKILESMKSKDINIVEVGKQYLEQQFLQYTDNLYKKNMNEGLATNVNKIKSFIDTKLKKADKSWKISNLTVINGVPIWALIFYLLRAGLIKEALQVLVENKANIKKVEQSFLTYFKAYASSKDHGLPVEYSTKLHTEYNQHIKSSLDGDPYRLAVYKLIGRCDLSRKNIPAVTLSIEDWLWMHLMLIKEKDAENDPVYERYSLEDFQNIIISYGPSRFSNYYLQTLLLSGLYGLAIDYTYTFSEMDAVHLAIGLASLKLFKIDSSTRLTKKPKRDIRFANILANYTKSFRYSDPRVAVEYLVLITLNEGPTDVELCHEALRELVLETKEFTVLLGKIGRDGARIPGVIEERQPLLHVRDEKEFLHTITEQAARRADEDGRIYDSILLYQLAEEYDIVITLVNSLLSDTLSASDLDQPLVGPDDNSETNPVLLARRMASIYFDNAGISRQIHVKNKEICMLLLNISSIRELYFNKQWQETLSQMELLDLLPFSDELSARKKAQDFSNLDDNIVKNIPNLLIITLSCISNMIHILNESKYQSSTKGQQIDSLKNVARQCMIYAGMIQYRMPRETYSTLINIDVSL
row,Variant,effect of a mutation on the interaction
1,W9A,disrupting interaction
2,V5A,disrupting interaction
3,L2A,disrupting interaction

# Second part, the variant after the results:
row,effect of a mutation on the interaction,Variant
1,disrupting interaction,F13A
2,disrupting interaction,F12A
